The values that follow come from article PMC11617104 (Molecular Biology of the Cell, 2024).

For data set [1], the target named is G3BP1 NTF2L domain (residues 1-139), wild type (UniProt Q13283 1-139). Kind of data set: differential scanning fluorimetry.
Data set [2] deals with G3BP1 NTF2L domain (residues 1-139), V11A (UniProt Q13283 1-139, V11A). Kind of data set: differential scanning fluorimetry. On the technique in general: In DSF a fluorescence change marks the thermal transition of the protein.
Chain of G3BP1 NTF2L domain (residues 1-139), V11A (Q13283 1-139 V11A): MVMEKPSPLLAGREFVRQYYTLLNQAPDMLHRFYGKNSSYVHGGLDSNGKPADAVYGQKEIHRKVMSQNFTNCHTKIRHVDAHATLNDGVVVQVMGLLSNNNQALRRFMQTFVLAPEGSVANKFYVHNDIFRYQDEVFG

Chain of G3BP1 NTF2L domain (residues 1-139), wild type (Q13283 1-139): as the sequence (Q13283 1-139 V11A) above, with A11V counted along it

Regarding RQRVQDLMAQMQGPYNFIQDSMLDFENQTLD [Caprin-1 peptide (residues 356-386)], the “thermal shift (ΔTm) at 50 µM and 100 µM Caprin-1 peptide” value in data set [1] was approximately 3 °C. For the same protein, the “thermal shift (ΔTm)” value in data set [2] was in the range of 1 to 1.5 °C.
